Substrate in data set [1]: O=C(O)CCC(=O)C(=O)O
Put plainly: (§1) Activity of collagen prolyl 4 hydroxylase-1.

Substrate in data set [2]: O=C1O[C@H]([C@@H](O)CO)C(O)=C1O
The description is as §1.

Substrate in data set [3]: O=O
The description is as §1.

Substrate in data set [4]: O=C(O)CCC(=O)C(=O)O
Put plainly: (§2) Activity of HIF prolyl hydroxylase-3.

Substrate in data set [5]: O=C1O[C@H]([C@@H](O)CO)C(O)=C1O
The data set is described as §2.

Substrate in data set [6]: O=O
Described as §2.

Substrate in data set [7]: O=C(O)CCC(=O)C(=O)O
The data set can be described thus: (§3) Activity of HIF prolyl hydroxylase-2.

Substrate in data set [8]: O=C1O[C@H]([C@@H](O)CO)C(O)=C1O
Described as §3.

Substrate in data set [9]: O=O
Described as §3.

Substrate in data set [10]: O=C(O)CCC(=O)C(=O)O
Put plainly: (§4) Activity of FIH-1.

Substrate in data set [11]: O=C1O[C@H]([C@@H](O)CO)C(O)=C1O
The description is as §4.

Substrate in data set [12]: O=O
Described as §4.

B1: Prolyl 4-hydroxylase subunit alpha-1 (Homo sapiens), P13674 (protein)
chain: MIWYILIIGILLPQSLAHPGFFTSIGQMTDLIHTEKDLVTSLKDYIKAEEDKLEQIKKWAEKLDRLTSTATKDPEGFVGHPVNAFKLMKRLNTEWSELENLVLKDMSDGFISNLTIQRQYFPNDEDQVGAAKALLRLQDTYNLDTDTISKGNLPGVKHKSFLTAEDCFELGKVAYTEADYYHTELWMEQALRQLDEGEISTIDKVSVLDYLSYAVYQQGDLDKALLLTKKLLELDPEHQRANGNLKYFEYIMAKEKDVNKSASDDQSDQKTTPKKKGVAVDYLPERQKYEMLCRGEGIKMTPRRQKKLFCRYHDGNRNPKFILAPAKQEDEWDKPRIIRFHDIISDAEIEIVKDLAKPRLRRATISNPITGDLETVHYRISKSAWLSGYENPVVSRINMRIQDLTGLDVSTAEELQVANYGVGGQYEPHFDFARKDEPDAFKELGTGNRIATWLFYMSDVSAGGATVFPEVGASVWPKKGTAVFWYNLFASGEGDYSTRHAACPVLVGNKWVSNKWLHERGQEFRRPCTLSELE
As usually defined, the Km is the substrate concentration at which the rate is half of its maximum. B1: the Km in data set [1] worked out at 20 µM; in [2] it was 300 µM; in [3] it was 40 µM.

B2: Prolyl hydroxylase EGLN3 (Homo sapiens), Q9H6Z9 (protein)
chain: MPLGHIMRLDLEKIALEYIVPCLHEVGFCYLDNFLGEVVGDCVLERVKQLHCTGALRDGQLAGPRAGVSKRHLRGDQITWIGGNEEGCEAISFLLSLIDRLVLYCGSRLGKYYVKERSKAMVACYPGNGTGYVRHVDNPNGDGRCITCIYYLNKNWDAKLHGGILRIFPEGKSFIADVEPIFDRLLFFWSDRRNPHEVQPSYATRYAMTVWYFDAEERAEAKKKFRNLTRKTESALTED
For B2, the Michaelis constant (Km) in data set [4] was determined as 55 µM; in [5], 140 µM; in data set [6], 230 µM.

B3: Egl nine homolog 1 (Homo sapiens), Q9GZT9 (protein)
chain: MANDSGGPGGPSPSERDRQYCELCGKMENLLRCSRCRSSFYCCKEHQRQDWKKHKLVCQGSEGALGHGVGPHQHSGPAPPAAVPPPRAGAREPRKAAARRDNASGDAAKGKVKAKPPADPAAAASPCRAAAGGQGSAVAAEAEPGKEEPPARSSLFQEKANLYPPSNTPGDALSPGGGLRPNGQTKPLPALKLALEYIVPCMNKHGICVVDDFLGKETGQQIGDEVRALHDTGKFTDGQLVSQKSDSSKDIRGDKITWIEGKEPGCETIGLLMSSMDDLIRHCNGKLGSYKINGRTKAMVACYPGNGTGYVRHVDNPNGDGRCVTCIYYLNKDWDAKVSGGILRIFPEGKAQFADIEPKFDRLLFFWSDRRNPHEVQPAYATRYAITVWYFDADERARAKVKYLTGEKGVRVELNKPSDSVGKDVF
As for B3, the figures for the Michaelis constant (Km) in data set [7], in data set [8] and in data set [9] were 2 µM, 180 µM and 100 µM, respectively.

B4: Hypoxia-inducible factor 1-alpha inhibitor (Homo sapiens), Q9NWT6 (protein)
chain: MAATAAEAVASGSGEPREEAGALGPAWDESQLRSYSFPTRPIPRLSQSDPRAEELIENEEPVVLTDTNLVYPALKWDLEYLQENIGNGDFSVYSASTHKFLYYDEKKMANFQNFKPRSNREEMKFHEFVEKLQDIQQRGGEERLYLQQTLNDTVGRKIVMDFLGFNWNWINKQQGKRGWGQLTSNLLLIGMEGNVTPAHYDEQQNFFAQIKGYKRCILFPPDQFECLYPYPVHHPCDRQSQVDFDNPDYERFPNFQNVVGYETVVGPGDVLYIPMYWWHHIESLLNGGITITVNFWYKGAPTPKRIEYPLKAHQKVAIMRNIEKMLGEALGNPQEVGPLLNTMIKGRYN
Regarding B4, the Km in data set [10] came to 25 µM; in data set [11], 260 µM; in data set [12] it was 90 µM.
